{"source": "paper PMC12576452", "target": "HBV-S/preS1^16-42 antigen, untagged, produced in P. purpureum (Hepatitis B virus) (UniProt P03138)", "assay": "SDS-PAGE under native, non-reducing (-DTT) and reducing (+DTT) conditions with western blot; lysates of freeze-dried algal biomass; bands of monomers, dimers and oligomers detected with anti-preS1 antibodies; disulfide-linked"}
{"substance": "HBV-S/preS1^16-42 antigen, untagged, produced in P. purpureum (from UniProt P03138 16-42)", "values": [{"measurement": "stoichiometry N", "value": 2}]}
